Source: patent US7799901B2, “Modulators of the function of FAS receptors and other proteins” (Yeda Research and Development Co. Ltd., priority 1995, dated 2010)
Residue numbers refer to the chain shown, from its start.

T1: mouse Fas-IC (Mus musculus, UniProt P25446)
T1 construct: four constructs of the mouse Fas-IC; expressed in transfected cells; host or cells: SFY526 yeast
T1 sequence (P25446 187-327 limits assumed): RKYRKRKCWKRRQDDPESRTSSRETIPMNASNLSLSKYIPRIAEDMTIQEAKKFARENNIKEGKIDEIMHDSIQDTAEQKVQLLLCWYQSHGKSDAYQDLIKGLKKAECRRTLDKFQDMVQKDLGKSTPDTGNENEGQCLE

T2: FAS-IC with replacement mutations at position 225 (Ile) (Mus musculus, UniProt P25446, I246A)
T2 construct: four constructs of the mouse Fas-IC including two full-length constructs; expressed in transfected cells; host or cells: SFY526 yeast
T2 sequence (P25446 187-327 I246A): T1 sequence (P25446 187-327 limits assumed) with I60A

B1: MORT-1: Mediator of Receptor-induced Toxicity; protein binding the intracellular domain of FAS-R, SEQ ID NO:2 (protein)
chain: VNQAPECRFGGGILGPLGKRRDLARASEPRTEGARRAGPQPRPLADPAMDPFLVLLHSVSSSLSSSELTELKFLCLGRVVKRKLERVQSGLDLFSMLLEQNDLEPGHTELLRELLASLRRHDLLRRVDDFEAGAAAGAAPGEEDLCAAFNVICDNVGKDWRRLARQLKVSDTKIDSIEDRYPRNLTERVRESLRIWKNTEKENATVAHLVGALRSCQMNLVADLVQEVQQARDLQNRSGAMSPMSWNSDASTSEAS

Tests used:
MACHα1 = biological target: T3, MACHα1 (Homo sapiens, UniProt Q14790); assay: Two-hybrid β-galactosidase filter assay (FIG. 5), binding to MACHα1; details: two hybrid test
T3 construct: expressed in transfected cells; host or cells: SFY526 yeast
T3 sequence (Q14790 217-479): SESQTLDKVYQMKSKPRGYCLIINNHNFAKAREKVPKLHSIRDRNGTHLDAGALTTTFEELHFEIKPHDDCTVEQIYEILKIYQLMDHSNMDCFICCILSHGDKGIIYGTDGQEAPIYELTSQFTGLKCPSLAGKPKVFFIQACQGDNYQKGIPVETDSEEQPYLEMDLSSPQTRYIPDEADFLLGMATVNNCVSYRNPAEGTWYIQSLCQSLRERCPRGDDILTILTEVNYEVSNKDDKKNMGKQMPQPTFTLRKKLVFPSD
Protocol: In FIG. 5, there is shown the results of the interaction of MORT-1 and MACH within transfected yeast cells. Briefly, MORT-1 and MACHβ1 and their deletion constructs, as well as MACHα1, a MACHα1 mutant in which the catalytic cysteine Cys360 is replaced by Ser (MACHα1 (C360S)) and the intracellular domain of human FAS-R (Fas-IC), were expressed within transfected SFY526 yeast in Gal4 DNA binding domain and activation domain constructs (pGBT9 and pGAD-GH). Their interaction was assessed by a β-galactosidase expression filter assay as described in Boldin et al (1995b). The results are presented in terms of the time required for the development of strong color. […] None of the inserts examined interacted with a number of tested negative controls, including the intracellular domains of human p55 TNF receptor, p75 TNF receptor and CD40, and lamin, cyclin D and ‘empty’ Gal4 vectors. MACHβ1 was cloned by two hybrid screening of a Gal4 AD-tagged human B cell library (Durfee et al, 1993) for proteins that bind to MORT-1, using the HF7c Yeast reporter strain. Except where otherwise indicated, all experimental procedures for the findings presented are as described above (see also Boldin et al, 1995). […] MACHβ1 also self-associated in the transfected yeast. […] Expression of MACHβ1 molecules in mammalian cells yielded a 34 kDa protein that bound to MORT-1 molecules co-expressed with it. […]

mouse Fas-IC = biological target: T1, mouse Fas-IC; assay: Two-hybrid test of MORT-1 binding (FIG. 1), mouse Fas-IC; details: transfected SFY526 yeasts
Description: (§1) To isolate proteins interacting with the intracellular domain of the FAS-R, the yeast two-hybrid system was used (Fields and Song, 1989). […] In this system, the genes for the candidate interacting proteins are cloned into separate expression vectors. In one expression vector, the sequence of the one candidate protein is cloned in phase with the sequence of the GAL4 DNA-binding domain to generate a hybrid protein with the GAL4 DNA-binding-domain, and in the other vector, the sequence of the second candidate protein is cloned in phase with the sequence of the GAL4 activation domain to generate a hybrid protein with the GAL4-activation domain. The two hybrid vectors are then co-transformed into a yeast host strain having a lacZ or HIS3 reporter gene under the control of upstream GAL4 binding sites. Only those transformed host cells (cotransformants) in which the two hybrid proteins are expressed and are capable of interacting with each other, will be capable of expressing the reporter gene. In the case of the lacZ reporter gene, host cells expressing this gene will become blue in color when X-gal is added to the cultures. […]
(§2) In FIG. 1, there is depicted the interaction of the proteins encoded by the Gal4 DNA binding domain and activation-domain constructs (pGBT9 and pGAD-GH) within transfected SFY526 yeasts as assessed by β-galactosidase expression filter assay. […]

[1] = biological target: T2, FAS-IC with replacement mutations at position 225 (Ile); assay: Two-hybrid test of MORT-1 binding (FIG. 1), FAS-IC mutated at position 225; details: lpr^eg mutation site
Description: as §1, §2

Molecule | binding to MACHα1 in transfected yeast (self-interaction) (MACHα1) | binding to mouse Fas-IC in two-hybrid test (mouse Fas-IC) | binding to FAS-IC with replacement mutation at position 225 [1]
MACHα1: MACH isoform, cDNA SEQ ID NO: 14, amino acid SEQ ID NO: 7; contains CED3/ICE homology region | did not exhibit self-interaction | – | –
B1 | – | binds | prevents binding
